Experiment: soluble fraction after stress (log2 fold change); higher = more stays soluble; pooled small domains, quantitative proteomics
Conditions: stress: 50 degC
How it was run: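 The stress applied to every library was 50°C. These custom libraries of small protein domains were pooled and measured at high throughput with quantitative proteomics as the read-out. Aggregation propensity is expressed as the base-two logarithm of the fold change in how much of each protein remains soluble. The higher the value, the more of that protein stays in solution.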

| Sequence | soluble fraction (log2) |
| --- | --- |
| HMNKPKIIINSVDDSVFSDYVKDSLSIAEVARSIGIDNNKINTSVYREIHKRIDSLKLDTSHFTGGAWN | -0.174 |
| HMQNKYIIKQGNSGELVEVLQELLNLKQDGVFGPQTKKAVIAFQQKHKLVADGIVGPMSWRKLNFNPEELF | -2.13 |
| HMWTPLVVAVLIGGTHRFGELRAAVGGITPKVLTETLRSMERDGLVVREQTPGVPPRVDYALTPLGA | -0.319 |
| HMGDADDLSRELLQQGLSLKEAVADFERRYLQQAMQRHSSIASVSEALDVHFSTLWRKLVKYNLV | -0.047 |
| HMAVFRVGDKVKSMEGMIGEVRGINGRLIQVATPYGLRDYYPHQITKVENPLAAAPAPLNEEA | 0.269 |
| HMQSNDAGELEAVVKGIIDANPKVVADYLAGNQKVVSFFVGQAMKATKGKANPKMVSEILGKLL | 0.00348 |
| HMTRVANIPYSEFLKLVETDKINDVSMVGKTISGHLDDGTKFSTYTPPNDPNLIDKLSKHNVIIKAGPE | 0.0971 |
| HMPFSLHGVNEGSRNDNAARIAGYLISKNLNLDFVRIFLHNWNRDNKPPLPQQEIDSVVDNVKKTHDRKN | -0.828 |
| HMTELKKTAVDTWVKDLGTEQALAKLDTLAVVKLRRLAREYKAFGIAGRAISKADKGMLLAEFRAYYEN | -1.86 |
| HMQLSMLPYGFARRHGVLLVEQDEQPTLIHRAGITATVIAEVQRVAGQIDAWRLVDDARFDQQLAEVYRD | -1.06 |
| HMTEAVYMPALQNKTLEEAQRIVEQYDLELEYTYEANAQVEEGRILSQTPQMGVLVERGEKVQAVVSLG | 0.571 |
| HMDYINALTTAGITDAKVIVTAPFDVSGTAALTGIYKAYEDITGSSLNEIAKAVGVEELITTGNLA | 0.0392 |
| HMGGEKLPAPVAGTLLRYSVAEGARVSEGQTVIILESMKMELEINTPKAGVIHFLAAVGAQVAEGDTLAEI | -1.82 |
| HMDALIWYVSRGQQKFGPFNYFGVLKALQDKSVFEFDYVWKEGTENWVRLAEHELFSQEKVRELLA | -0.203 |
| HMGQNYTIVKGDSLWKIAQKQYGDGSQWKKIYDANKDAIESAAKKYGKKSSDSGKWIYPGVSLII | 0.0704 |
| HMTSVAYVIDRINKIQNVYSELEALGLKDEFEKILSNIEDLSKKDIREIKTLLKTKGVIKNLDDLNVKL | -0.0059 |
| HMSDILALMPGTIKQILVAPGDSVKRGQTVIIMESMKMELTIAAHRDGVVKRIPVEQGGQVEKGMRLLELE | 0.256 |
| HMQIDDSVELSAIVEKLLAANPEQVEQLKNGKTKVLGYFVGLAMKETQGRANPQKVNELIQTHL | -0.174 |
| HMKGPLKDLGPDPVTGKSILVKDGKFGTYVTDGETNATLRRGDIVELLTLERGMELLAEKRARATQ | 0.151 |
| HMTYVSVSNYIGTNVDKAKGELESQGLVVLLEEQKTEDKSQDGMVLKQTIEGGTKVSSGSRITLIYGRYT | 0.197 |
| HMHGQGTYTSPDGTKYVGDWQDEKMHGQGTYTYPDGMKFVGEFKDNKPWNGTGYDKYGNVKATFSNGVGKS | 0.066 |
| HMDAIIVPSVLKMKPFEAEEKLSALGLRMKINDTVYIDNMKPGVIVEQSPTAEEDVKTDRVIYVIVNA | -0.404 |
| HMEPIAFDNMHNRGIKGTNDWTQYEITLPFSAEAKKIFVAGLLVGKGKAWFDKFEVFLDGKNITDVAQI | 0.124 |
| HMDVLKVFSHNVRRYRTQLGLSQETVAFRTGLHRTYISAVERGKRSISLDNIQKIADALEVETYLLFI | -1.72 |
| HMKNNAIAPDQVVSLLKNEVNYNDDGRIEILDNNKNIRYNSKGELLTIEERVNEFLDANPHFRK | -0.119 |

| Sequence | soluble fraction (log2) |
| --- | --- |
| HMTEDELLAQFEEILDGYVGKPGGLIPALQTAQKLFGYLPKRVLQLISMKLDIPYSEVTGVVSFYSFFTTV | -0.0145 |
| HMNRMKLLREQHNLSQTDLAKILNISRQSYNFYENEKRDPDTTMLIRIADFFNVSLDYLLGRTNN | -1.66 |
| HMPLSDAEKAAAIATQAKERALKLSPEMISYLLRHASRDMRTLSMLVVALDQYTLEQKRPVTLPLLRELLS | -0.098 |
| HMDVSVPDVTGTRLDRAQSLLEAQGLTLGKVEEFFHATEPAGIVYDQEPRPGTRVDEGTAISVSVSKGPEA | 0.0552 |
| HMTLAAATESREYLADLARRLDAADHGDKTRIKAEAAGLLGWSMATLHARLARDVGWTSGRK | -0.0944 |
| HMIERLVVSPAAGVFTKKMSVENNTRIDVGHVLGHVGETEVRSPFAGILQNYIAVDGERLTAHQPIAWLRS | 0.00717 |
| HMETMSYAEFNAIRIGKAKLMLADPSLKIWEISEAVGYTDTAHFARTFKKLEGMSANEYRNSL | -1.12 |
| HMERPPHELLSDREYQTMVMIASGRTLTQIAEEMSLSPKTVSVYRARLLEKMKLKNNAELTHYALKHKLV | 0.0152 |
| HMKKVIKIEENVSLQKLAALMSLKVTDVLMRLLSMGMSGVNINSTIDADTAKILASEFGWTVED | -0.743 |
| HMELARLRPELDGNDIMRILGVPPGPVVGRAYTYLLELRINQGELGRERVTQLLLDWAAAEGISA | -2.02 |
| HMGDAIPVPDVSGFSEDQAMNNLRKVGLRPKATYVADDNTAKGYVTGTSPAKNIEVAPDSEVIVYVSSGP | 0.238 |
| HMNGTGSVYKLSGKRRNPWRAVVTNGWAYNEEKGKLVQNRVTIGYYHTRDEAIQAIANYNSSP | -1.52 |
| HMGAAIEYGDRGNTVLQAQRLLIARGYMAGSADGIYGRQMEQAVKRFQKEQGLPESGVVDRRTLQVLIRSR | -0.626 |
| HMYQFFVDPGQIQGKRVTITGSDVNHIKNVLRMRIGEEIAVSNGKDGLEYRFGIDEILEDEVIGTLRFVKE | -0.968 |
| HMLTWNQLGLITKPVVFLDGTGYYARLFEAFEHMISTGFVKENYRAMMNRATSVEEAVRIASSPAPKVD | -0.0676 |
| HMDRSRAEIDLGHVETAIRTLAEGGMVQEYAIGGRSLKRYKMGELLQLKAELENEINMERRKEKMRQ | 0.197 |
| HMLQQKESAALGERLLNQALATLKVEPDAISWDRWEALAKEYGAKSQLDILADIGLGKRLSFVVAQALTKV | -0.535 |
| HMTANTLDLTYSQFLENVKNGSVNDVTIRGNNVSGNFSDGRKFKTYAVNDPTLVEKLTKMGVNISAAPL | 0.267 |
| HMKFSVEEQFKKSFPKNTYETFSETSLKGVYEVYNGKQVYYYLPVNDVLLLGSIVTKDGKNLTQESNSKK | -0.0811 |
| HMGKKQLVVDLQSIITDVPAALKSYGLEIGQDGKSLIYTYDTKGERTGITTLLNDLQKAGLQMTDMKTQQ | 0.0536 |
| HMRDAKSQLQEALQKSGRLPEYELVSVEGPPHAPVFTYRVRIDGAVVGEGQGASKQAAQQAAAQSALKSG | 0.145 |
| HMKVSVPDIMDNSSLRQAEAKLRALGFRVTEPEYISGEKDWVYSVTYKGRTLNAGDKVPHEALLTLHVGNG | -0.0697 |
| HMAYSEEDRRRVREELLTTALKLMSTQGIQHTTVEQVYRSVGISRSFFYAFFPTKEDLIVEAL | 0.117 |
| HMGAARRFEMSEGGSQKFWEVAVEGPALTVRFGKLGTAGTTQTKTLASAEAAAKEADKLVREKTKKGYAP | 0.222 |
| HMSPPVIQQGQDVRLIYKGTGFAVSNEGKALNTAADGQVARARTGGGQTVSGIARPGGIIEIT | 0.308 |

| Sequence | soluble fraction (log2) |
| --- | --- |
| HMSSDEDELESIIKRVFADNPIELERLQNGEDKLIKFFMGLVMRQTKGKYPPKIIIDLLNKS | -0.411 |
| HMDAPKPDIGMSTDQIRSSLGQPGSQTRLETGGGRIYELWIYLYPDGKELQIYFDNAKVVKMEALS | -0.613 |
| HMSREEFLAGLEEALAGEVPASVIRENLNYYNSYISQEMAKGRTVDEIVDEIGEPRIVARTIIDSSEAAGE | 0.0724 |
| HMTEKQYIYSIGDRVNIGTDEFEIVNINEKEVSIADVTFPMLVKQISYEEFDRKVKENPFNDHLII | 0.0642 |
| HMVGMDRYFKIKNIKDSSAAFERDYILHFLKENDWMVSKTAQMIGLERTTLYKKIKQLGLASMLEN | -2.85 |
| HMVVVMNADAEADEIKRVKWNLEQMLFRTQVIYGVKRIVIGAIGDQREVDLSEIEQMPKVDKIVRISK | -1.4 |
| HMTGIVVVDVVGQVGRPGLVSLPAGSRVADAITAAGGATPEADVSLLNQARLVIDGEQIRVPRPGEVIAA | -0.0367 |
| HMESSSQLGFELARLVESGNDEEARALVQAKELSEADERKWLYHLGNLLHAAGRPLQASAIWREVGT | 0.0628 |
| HMAPAPYLVKVTANKLNIRSGPGTNYKIQGAITDKGTYTIVDTQGRWGKLKSGAGWIYLNYTKK | -1.9 |
| HMVVRKHDRYYTPEHRKLLMDTYERTNKYPTKQDMSELAKIIGVLPIKILWWYTHRRRQDRRKGEESSSP | -0.0096 |
| HMGSNLSFDLSQIIASRYQEKAAELGLTAPSLARTDLSPQEQATAEVVARAIIADYYDQRVAPFNDLIPQ | -0.394 |
| HMAHTGGNTLTREKAVSVRSASDALLFEIHWNETPREDILSTREEKVDGKTYSIITIRTGKGREDHYYLLS | -0.29 |
| HMDLFLVYQFIRRLATPFTEWKAHELGIIDDKGVQLKKRRDFTTREEKDAYGIFDIMITKLKRLIEKV | -0.255 |
| HMRHLSVPNRQVEGALDHIRSQGWLAEGMRVFASEDGSARLIPLGPGAPLEMLEPLAKFDVISHEGKPY | -0.0914 |
| HMGYVQLTAREKEVLQGLVDGASYKMIAAKLDIRFGTVHTHVKNIYEKLHVNSASEAVVKAIRQRL | -2.46 |
| HMVDYIGRRGVMLSTVSEEKMGNAEVVIDGNSYNIYVKSLDGSTIAYHQEILIINKSKDNNYFLVQIY | -2.63 |
| HMQLPIGDVKLSVEHLSSGTALQDISFEVHRGEIFGFLGLVGAGRSETAETIFGLREKTDGKISIDGTVL | -0.214 |
| HMSHGFFELKTTQKEALIKLLDSHPNFTHTKTEADLTTAFLKLPMDAEQFNKLLFTNGIVLSHLVKRK | -0.668 |
| HMKSSYSGNFKQNVVEYMHNNHLSATETANHFKLGGGSVVLRWERIYYEEGPQALYEERRGR | -1.7 |
| HMNPSAFSEYSFELLQSALLKKKIDENLSNQTIARDAGVSEAFVQKVLTNNVKRPSVKNRVRMISYLGLD | -1.22 |
| HMANPRLEYFLSNITPDWNEFSPELKNQLLIENADPYKLEQYILQVSPDMYIEEQNAPGTVRQMAGDITG | 0.09 |
| HMGRRERKKLQSRRAIIEAAVTEFKEKGFREASVADIMTRADLGLGTFYNYFQSKEDILMSLLS | -0.0676 |
| HMDKPGMRLNQFIAHSGISSRREADNLIKAGLVQVNGKIIVEMGFRVMPTDIVKFNNETIAS | -1.46 |
| HMVSGSPTVDILMQRGLEYQQQENLEAARDAFDRAINLKPDYAEAWNRRAVLFFNEGKYDEAIADLETAIT | 0.077 |
| HMSDPASLQRRLMSDPELTARILDSPFTRSLLDDPNLLRQMVNANPQLRRAMDANPQLRHAL | -0.21 |
